Legend:
[1] = molecular target: T1, human CTLA4 (soluble analyte of the Biacore assays of Examples 3-3, 4 and 5) (human, UniProt P16410 36-161); assay: SPR 37C, Ab on Protein G, 1000 nM CTLA4, no ATP; no ATP; binding amount at 1000 nM CTLA4
T1 construct: also called hCTLA4
T1 sequence: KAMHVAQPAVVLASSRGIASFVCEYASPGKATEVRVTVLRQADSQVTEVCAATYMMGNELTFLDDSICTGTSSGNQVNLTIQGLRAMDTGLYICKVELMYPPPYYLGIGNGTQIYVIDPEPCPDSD
Description: (§1) Biacore T200 was used to measure the binding of the generated antibodies to human CTLA4. 20 mM ACES (pH 7.4), 150 mM NaCl, 2 mM MgCl₂, 0.05% Tween 20 with ATP added to the desired concentration was used as the running buffer, and the assay was performed at 37° C. First, Protein G (CALBIOCHEM) was immobilized onto a Series S Sensor Chip CM3 (GE Healthcare), and the antibodies were captured by interacting an antibody solution prepared in an ATP-free running buffer with the chip. Next, by interacting with a human CTLA4 solution prepared in a running buffer containing ATP to the desired concentration, or a human CTLA4 solution prepared in a running buffer containing no ATP, the binding ability of the antibody to human CTLA4 in the presence or absence of ATP was evaluated. Chips were regenerated with 25 mM NaOH and 10 mM Glycine-HCl (pH 1.5), and assay was performed by repeatedly capturing antibodies. The dissociation constant of each antibody for CTLA4 was calculated using Biacore T200 Evaluation Software 2.0. Specifically, the binding rate constant ka (L/mol/s) and the dissociation rate constant kd (1/s) were calculated by global fitting of the sensorgrams obtained by the measurement, using a 1:1 Langmuir binding model. The dissociation constant KD (mol/L) was calculated from those values. Alternatively, the dissociation constant KD (mol/L) was calculated by the steady state model. In addition, the binding amount of CTLA4 per unit amount of antibody was calculated by correcting the amount of CTLA4 bound as calculated from the sensorgram obtained by the assay with the amount of antibody captured onto the chip surface.
(§2) The KD values marked with an * in the table were calculated using the steady state model. It was shown that all the variants prepared using 04H0150-G1m/04L0072-lam1 as the parent antibody had enhanced binding in the presence of ATP as compared to 04H0150-G1m/04L0072-lam1.

[2] = molecular target: T1, human CTLA4 (soluble analyte of the …); assay: SPR 37C, Ab on Protein G, 1000 nM CTLA4, ATP 1 uM; ATP 1 uM; binding amount at 1000 nM CTLA4
Description: as §1, §2

[3] = molecular target: T1, human CTLA4 (soluble analyte of the …); assay: SPR 37C, Ab on Protein G, 1000 nM CTLA4, ATP 10 uM; ATP 10 uM; binding amount at 1000 nM CTLA4
Description: as §1, §2

[4] = molecular target: T1, human CTLA4 (soluble analyte of the …); assay: SPR 37C, Ab on Protein G, 1000 nM CTLA4, ATP 100 uM; ATP 100 uM; binding amount at 1000 nM CTLA4
Description: as §1, §2

[5] = molecular target: T1, human CTLA4 (soluble analyte of the …); assay: SPR 37C, Ab on Protein G, 1000 nM CTLA4, no ATP
Description: as §1, with “Next,” for “Biacore T200 was used to measure the binding of the generated antibodies to human CTLA4. 20 mM ACES (pH 7.4), 150 mM NaCl, 2 mM MgCl₂, 0.05% Tween 20 with ATP added to the desired concentration was used as the running buffer, and the assay was performed at 37° C. First, Protein G (CALBIOCHEM) was immobilized onto a Series S Sensor Chip CM3 (GE Healthcare), and the antibodies were captured by interacting an antibody solution prepared in an ATP-free running buffer with the chip. Next,”
(§3) Biacore T200 was used to evaluate the binding of the generated variants to ATP and to human CTLA4. The assay of binding to ATP was performed at 37° C. using 20 mM ACES (pH 7.4), 150 mM NaCl, 2 mM MgCl₂, 0.05% Tween20 as the running buffer. First, Sure Protein A (GE Healthcare) was immobilized onto a Series S Sensor Chip CM3 (GE Healthcare), and the antibodies were captured onto the chip by interacting an antibody solution prepared in the running buffer. Next, the binding ability to the antibody was evaluated by interacting with an ATP solution prepared in the running buffer. Chips were regenerated with 25 mM NaOH and 10 mM Glycine-HCl (pH 1.5) and assay was performed by repeatedly capturing antibodies. For the binding amount of each antibody to ATP, the binding amount of ATP per unit amount of antibody was calculated by correcting the amount of binding when ATP was injected at a concentration of 100 nM with the amount of antibody captured onto the chip surface. Binding to human CTLA4 was measured using Biacore T200 by the method described in Example 3-3.

[6] = molecular target: T1, human CTLA4 (soluble analyte of the …); assay: SPR 37C, Ab on Protein G, 1000 nM CTLA4, ATP 1 uM
Description: as §1, with “Next,” for “Biacore T200 was used to measure the binding of the generated antibodies to human CTLA4. 20 mM ACES (pH 7.4), 150 mM NaCl, 2 mM MgCl₂, 0.05% Tween 20 with ATP added to the desired concentration was used as the running buffer, and the assay was performed at 37° C. First, Protein G (CALBIOCHEM) was immobilized onto a Series S Sensor Chip CM3 (GE Healthcare), and the antibodies were captured by interacting an antibody solution prepared in an ATP-free running buffer with the chip. Next,”
as §3

[7] = molecular target: T1, human CTLA4 (soluble analyte of the …); assay: SPR 37C, Ab on Protein G, 1000 nM CTLA4, ATP 10 uM
Description: as §1, with “Next,” for “Biacore T200 was used to measure the binding of the generated antibodies to human CTLA4. 20 mM ACES (pH 7.4), 150 mM NaCl, 2 mM MgCl₂, 0.05% Tween 20 with ATP added to the desired concentration was used as the running buffer, and the assay was performed at 37° C. First, Protein G (CALBIOCHEM) was immobilized onto a Series S Sensor Chip CM3 (GE Healthcare), and the antibodies were captured by interacting an antibody solution prepared in an ATP-free running buffer with the chip. Next,”
as §3

[8] = molecular target: T1, human CTLA4 (soluble analyte of the …); assay: SPR 37C, Ab on Protein G, 1000 nM CTLA4, ATP 100 uM
Description: as §1, with “Next,” for “Biacore T200 was used to measure the binding of the generated antibodies to human CTLA4. 20 mM ACES (pH 7.4), 150 mM NaCl, 2 mM MgCl₂, 0.05% Tween 20 with ATP added to the desired concentration was used as the running buffer, and the assay was performed at 37° C. First, Protein G (CALBIOCHEM) was immobilized onto a Series S Sensor Chip CM3 (GE Healthcare), and the antibodies were captured by interacting an antibody solution prepared in an ATP-free running buffer with the chip. Next,”
as §3

Row | Binder | Binding to Human CTLA4 (amount per unit antibody) [1] | Binding to Human CTLA4 (amount per unit antibody) [2] | Binding to Human CTLA4 (amount per unit antibody) [3] | Binding to Human CTLA4 (amount per unit antibody) [4] | Binding to Human CTLA4 (amount per unit antibody) [5] | Binding to Human CTLA4 (amount per unit antibody) [6] | Binding to Human CTLA4 (amount per unit antibody) [7] | Binding to Human CTLA4 (amount per unit antibody) [8]
1 | 04H1077-G1m/04L1034-lam1 (antibody, human IgG1, lambda, V domains shown) VH: EVQLVESGGDLVKPGGGLRLSCAASGFTFSSRTMNWVRQAPGKGLEWVSSISTRSGYIYYAESVKGRFTISRDNAKNSLYLQMNSLRAEDTAVYYCARYGKREDMLWVFDYWGQGTLVTVSS VL: QSALTQPPSASGSPGQTVTISCDGPSTDVGDYNWVSWYQQHPGKAPKLMIYFTSKKPSGVPDRFSGSKSGNTASLTVSGLQAEDEADYFCSTYAAPLGPMFGGGTKLTVLG | 0.004 | 0.007 | 0.041 | 0.114 | – | – | – | –
2 | 04H1208-G1m/04L1086-lam1 (antibody, human IgG1, lambda, V domains shown) VH: EVQLVESGGGLVKPGGSLRLSCAASGFTFSSKTMNWVRQAPGKGLEWVSSISTRSGYIYYARSVKGRFTISRDNAKNSLYLQMNSLRAEDTAVYYCARYGKREDMLWVFDYWGQGTLVTVSS VL: QSALTQPPSASGSPGQTVTISCDGPSTGVGDYNYVHWYQQHPGKAPKLMIYFTSKKPSGVPDRFSGSKSGNTASLTVSGLQAEDEADYFCQTYAAPLGPMFGGGTKLTVLG | 0.005 | 0.03 | 0.108 | 0.17 | 0.003 | 0.022 | 0.084 | 0.139
3 | 04H1207-G1m/04L1086-lam1 (antibody, human IgG1, lambda, V domains shown) VH: EVQLVESGGGLVKPGGSLRLSCAASGFTFSSKTMNWVRQAPGKGLEWVSSISTRSGYIYYAESVKGRFTISRDNAKNSLYLQMNSLRAEDTAVYYCARYGKREDMLWVFDYWGQGTLVTVSS VL: QSALTQPPSASGSPGQTVTISCDGPSTGVGDYNYVHWYQQHPGKAPKLMIYFTSKKPSGVPDRFSGSKSGNTASLTVSGLQAEDEADYFCQTYAAPLGPMFGGGTKLTVLG | 0.013 | 0.047 | 0.137 | 0.196 | 0.01 | 0.037 | 0.111 | 0.166
4 | 04H1077-G1m/04L1041-lam1 (antibody, human IgG1, lambda, V domains shown) VH: EVQLVESGGDLVKPGGGLRLSCAASGFTFSSRTMNWVRQAPGKGLEWVSSISTRSGYIYYAESVKGRFTISRDNAKNSLYLQMNSLRAEDTAVYYCARYGKREDMLWVFDYWGQGTLVTVSS VL: QSALTQPPSASGSPGQTVTISCDGPSTDVGDYNYVHWYQQHPGKAPKLMIYFTSKKPSGVPDRFSGSKSGNTASLTVSGLQAEDEADYFCSTYAAPLGPMFGGGTKLTVLG | 0.006 | 0.023 | 0.094 | 0.172 | – | – | – | –
5 | 04H1077-G1m/04L1067-lam1 (antibody, human IgG1, lambda, V domains shown) VH: EVQLVESGGDLVKPGGGLRLSCAASGFTFSSRTMNWVRQAPGKGLEWVSSISTRSGYIYYAESVKGRFTISRDNAKNSLYLQMNSLRAEDTAVYYCARYGKREDMLWVFDYWGQGTLVTVSS VL: QSALTQPPSASGSPGQTVTISCDGPSTGVGDYNYVHWYQQHPGKAPKLMIYFTSKKPSGVPDRFSGSKSGNTASLTVSGLQAEDEADYFCSTYAAPLGPMFGGGTKLTVLG | 0.012 | 0.041 | 0.131 | 0.192 | – | – | – | –
6 | 04H1077-G1m/04L1086-lam1 (antibody, human IgG1, lambda, V domains shown) VH: EVQLVESGGDLVKPGGGLRLSCAASGFTFSSRTMNWVRQAPGKGLEWVSSISTRSGYIYYAESVKGRFTISRDNAKNSLYLQMNSLRAEDTAVYYCARYGKREDMLWVFDYWGQGTLVTVSS VL: QSALTQPPSASGSPGQTVTISCDGPSTGVGDYNYVHWYQQHPGKAPKLMIYFTSKKPSGVPDRFSGSKSGNTASLTVSGLQAEDEADYFCQTYAAPLGPMFGGGTKLTVLG | 0.01 | 0.031 | 0.106 | 0.181 | – | – | – | –
7 | 04H1389-G1m/04L1305-k0MT (antibody, human IgG1, kappa) heavy: not shown light: DIVMTQSPLSLPVTPGEPASISCDGPSTGVGDYNYVHWYQQKPGQAPRLLIYFTSKKPSGVPDRFSGSGSGTDFTLKISRVEAEDVGVYYCQTYAAPLGPMFGQGTKLEIKRTVAAPSVFIFPPSDEQLKSGTASVVCLLNNFYPREAKVQWKVDNALQSGNSQESVTEQDSKDSTYSLSSTLTLSKADYEKHKVYACEVTHQGLSSPVTKSFNRGEC | – | – | – | – | 0.03 | 0.12 | 0.154 | 0.151
